CN115368461A (JIANGSU HENGRUI MEDICINE CO; SHANGHAI HENGRUI …, dated 2022)

T1: 人TROP2-his (huTROP2-His), ACRO TR2-H5223 (human, UniProt P09758 27-274)
T1 construct: Bought His-tagged human TROP2 protein (ACRO)
T1 sequence: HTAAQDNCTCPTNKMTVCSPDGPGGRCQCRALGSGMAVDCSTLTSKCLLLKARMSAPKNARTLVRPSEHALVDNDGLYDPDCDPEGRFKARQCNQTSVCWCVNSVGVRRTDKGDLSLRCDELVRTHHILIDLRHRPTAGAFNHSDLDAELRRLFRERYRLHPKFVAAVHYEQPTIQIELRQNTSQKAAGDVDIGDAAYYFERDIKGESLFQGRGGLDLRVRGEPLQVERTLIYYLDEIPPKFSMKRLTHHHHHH

T2: TROP2 on FaDu cells (high huTROP2 expression) and SK-OV-3 cells (low TROP2 expression) (human, UniProt P09758 27-323)
T2 sequence (looked up): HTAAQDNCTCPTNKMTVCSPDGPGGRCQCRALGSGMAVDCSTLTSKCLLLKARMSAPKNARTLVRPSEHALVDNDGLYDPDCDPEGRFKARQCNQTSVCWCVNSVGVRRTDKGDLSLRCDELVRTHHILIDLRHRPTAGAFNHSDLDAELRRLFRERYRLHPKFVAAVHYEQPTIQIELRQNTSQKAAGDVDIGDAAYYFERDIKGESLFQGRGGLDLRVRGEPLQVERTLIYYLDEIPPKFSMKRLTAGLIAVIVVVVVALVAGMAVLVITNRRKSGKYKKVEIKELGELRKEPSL

T3: CHO细胞表面表达的人TROP2 (huTROP-2 CHO-K1 cells) (human, UniProt P09758 27-323)
T3 construct: Untagged human TROP2 stably expressed on CHO-K1 cells; The cells were fixed with paraformaldehyde in the cell ELISA; also called CHO-K1/hTROP2
T3 sequence: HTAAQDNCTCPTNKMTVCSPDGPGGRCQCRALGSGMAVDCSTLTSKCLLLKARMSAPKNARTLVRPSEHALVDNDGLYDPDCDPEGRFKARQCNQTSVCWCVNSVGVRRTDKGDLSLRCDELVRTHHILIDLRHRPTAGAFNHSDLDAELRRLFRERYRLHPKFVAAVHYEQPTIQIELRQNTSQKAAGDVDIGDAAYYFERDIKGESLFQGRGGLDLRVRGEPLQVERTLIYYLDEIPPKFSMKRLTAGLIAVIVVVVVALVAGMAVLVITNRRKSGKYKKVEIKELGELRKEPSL


Key:
[1] = target: T1, 人TROP2-his (huTROP2-His), ACRO TR2-H5223; experiment: Biacore T200 SPR; antibody captured on Protein A chip, huTROP2-his as analyte, 1:1 model
[2] = target: T2, TROP2 on FaDu cells (high huTROP2 …); experiment: cell-based or functional assay
[3] = target: T3, CHO细胞表面表达的人TROP2 (huTROP-2 CHO-K1 cells); experiment: cell ELISA on fixed huTROP-2 CHO-K1 cells
[4] = target: T1, 人TROP2-his (huTROP2-His), ACRO TR2-H5223; experiment: ForteBio Octet BLI; antibody on Protein A sensor, 100nM antigen

| Binder | Kd [1] | IC50(nM), DT3C内吞杀伤实验 on FaDu cells [2] | Imax(%), DT3C内吞杀伤实验 on FaDu cells [2] | binding result [3] | binding result [4] |
| --- | --- | --- | --- | --- | --- |
| hu29-12 (antibody, human IgG1, kappa, V domains shown, also called mAb29 VH4 + VL3) VH: EVKLVESGGGLVQPGGSLRLSCAASGFSFSDYYMYWVRQAPGKGLEWVANIDNVGDTTYYPDTVKGRFTISRDNAKNSLYLQMNSLRAEDTAVYYCARHDPLTGPPFFAMDYWGQGTTVTVSS VL: DIQMTQSPSSLSASVGDRVTITCKASQGINQYIAWYQQKPGKGPKLLIHYTSTLQPGVPSRFSGSGSGRDYTFTISSLQPEDIATYYCLQYDNLWTFGGGTKVEIKR | 0.202 nM | 0.0094 nM | 100% |  |  |
| hu53-02 (antibody, human IgG1, kappa, V domains shown, also called mAb53 VH1 + VL2) VH: EVQLVQSGAEVKKPGASVKVSCKASGYTFTSYWITWVRQAPGQGLEWMGNIHPGSSTTNYNEKFKSRVTMTRDTSTSTVYMELSSLRSEDTAVYYCAREVGDYWGQGTTVTVSS VL: EIVLTQSPATLSLSPGERATLSCRASQIIGTSIHWYQQKPGQAPRLLIKYVSESISGIPARFSGSGSGTDFTLTISSLEPEDFAVYYCQQSHSWPFTFGGGTKVEIKR | 0.691 nM | 0.0643 nM | 97.5% |  |  |
| mAb53 (antibody, V domains shown, Murine hybridoma monoclonal antibody; the murine constant regions are not; also called 鼠源mAb53; 鼠源抗体mAb53) VH: QVQLQQPGAELVKPGASVKMSCKASGYTFTSYWITWVKQRPGQGLEWIGNIHPGSSTTNYNEKFKSKATLTVHTSSSTVYMQLTSLTSEDSAVYYCAREVGDYWGQGTSVTVSS VL: DILLTQSPAILSVSPGERASFSCRASQIIGTSIHWYQQRTNGSPRLLIKYVSESISGIPSRFSGSGSGTDFTLSINSVESEDIADYYCQQSHSWPFTFGGGTKL |  |  |  | binds | binds |
| hRS7 (antibody, human IgG1, kappa, V domains shown) VH: QVQLQQSGSELKKPGASVKVSCKASGYTFTNYGMNWVKQAPGQGLKWMGWINTYTGEPTYTDDFKGRFAFSLDTSVSTAYLQISSLKADDTAVYFCARGGFGSSYWYFDVWGQGSLVTVSS VL: DIQLTQSPSSLSASVGDRVSITCKASQDVSIAVAWYQQKPGKAPKLLIYSASYRYTGVPDRFSGSGSGTDFTLTISSLQPEDFAVYYCQQHYITPLTFGAGTKVEIKR |  | 0.069 nM | 97.7% |  |  |

Second part, the binder after the results:

| Kd [1] | IC50(nM), DT3C内吞杀伤实验 on FaDu cells [2] | Imax(%), DT3C内吞杀伤实验 on FaDu cells [2] | binding result [3] | binding result [4] | Binder |
| --- | --- | --- | --- | --- | --- |
|  |  |  | binds | binds | mAb29 (antibody, V domains shown, Murine hybridoma monoclonal antibody; the murine constant regions are not; In the cell ELISA it was detected with goat anti-mouse IgG-HRP; also called 鼠源mAb29; 鼠源抗体mAb29) VH: EVKLVESGGDLVQPGGSLKLSCAASGFSFSDYYMYWVRQTPEKRLEWVANIDNGGDTTYYPDTVKGRFTISRDNAKNTLYLQMSRLKSEDTAMYYCARHDPLTGPPFFAMDYWGQGTSVTVSS VL: DIQMTQSPSSLSASLGGKVTISCKASQGINQYIAWYQLKPGKGPRLLIHYTSTLQPGVPSRFSGSGSGRDYSFSISNLEPEDIASYYCLQYDNLWTFGGGTKLEIK |
| 17 nM |  |  |  |  | TINA (antibody, human IgG1, kappa, V domains shown, Control antibody built according to WO2015098099A1; also called TINA抗体; 阳性对照抗体TINA) VH: QVQLVQSGAEVKKPGASVKVSCKASGYTFTTAGMQWVRQAPGQGLEWMGWINTHSGVPKYAEDFKGRVTISADTSTSTAYLQLSSLKSEDTAVYYCARSGFGSSYWYFDVWGQGTLVTVSS VL: DIQMTQSPSSLSASVGDRVTITCKASQDVSTAVAWYQQKPGKAPKLLIYSASYRYTGVPSRFSGSGSGTDFTLTISSLQPEDFAVYYCQQHYITPLTFGQGTKLEIKR |
